Measured values from patent US20090035308A1.

Molecular target: Notch1-Fc
Experiment: competition ELISA: Dll4-Fc premixed with 50 ng Dll4 (E8)-AP on coated Notch1-Fc; reference Dll4-L1-Fc

fold difference between L1 and L2 fusion proteins: 3 fold
B1: Dll4-L2-Fc (Fc fusion, part only; not given: linker, Fc, not shown: a dimerising Fc or GST)
chain, part: SGVFQLQLQEFINERGVLASGRPCEPGCRTFFRVCLKHFQAVVSPGPCTFGTVSTPVLGTNSFAVRDDSSGGGRNPLQLPFNFTWPGTFSLIIEAWHAPGDDLRPEALPPDALISKIAIQGSLAVGQNWLLDEQTSTLTRLRYSYRVICSDNYYGDNCSRLCKKRNDHFGHYVCQPDGNLSCLPGWTGEYCQQPICLSGCHEQNGYCSKPAECLCRPGWQGRLCNECIPHNGCRHGTCSTPWQCTCDEGWGGLFCDQDLNYCTHHSPCKNGATCSNSGQRSYTCTCRPGYTGVDCELELSECDSNPCRNGGSCKDQEDGYHCLCPPGYYGLHCEHSTLSCADSPCFNGGSCRERNQGANYACECPPNFTGSNCEKKVDRCTSNPCANGGQCLNRGP
